Measured values: IntAct's records for PubMed 20729810

B1: G protein-coupled receptor kinase 6 (Homo sapiens), P43250 (parent)
chain: MELENIVANTVLLKAREGGGGNRKGKSKKWRQMLQFPHISQCEELRLSLERDYHSLCERQPIGRLLFREFCATRPELSRCVAFLDGVAEYEVTPDDKRKACGRQLTQNFLSHTGPDLIPEVPRQLVTNCTQRLEQGPCKDLFQELTRLTHEYLSVAPFADYLDSIYFNRFLQWKWLERQPVTKNTFRQYRVLGKGGFGEVCACQVRATGKMYACKKLEKKRIKKRKGEAMALNEKQILEKVNSRFVVSLAYAYETKDALCLVLTLMNGGDLKFHIYHMGQAGFPEARAVFYAAEICCGLEDLHRERIVYRDLKPENILLDDHGHIRISDLGLAVHVPEGQTIKGRVGTVGYMAPEVVKNERYTFSPDWWALGCLLYEMIAGQSPFQQRKKKIKREEVERLVKEVPEEYSERFSPQARSLCSQLLCKDPAERLGCRGGSAREVKEHPLFKKLNFKRLGAGMLEPPFKPDPQAIYCKDVLDIEQFSTVKGVELEPTDQDFYQKFATGSVPIPWQNEMVETECFQELNVFGLDGSVPPDLDWKGQPPAPPKKGLLQRLFSRQDCCGNCSDSEEELPTRL

Variants of: B1
Conditions: with rom1_bovin ROM1, P52205
rom1_bovin ROM1, P52205, sequence (P52205 whole entry): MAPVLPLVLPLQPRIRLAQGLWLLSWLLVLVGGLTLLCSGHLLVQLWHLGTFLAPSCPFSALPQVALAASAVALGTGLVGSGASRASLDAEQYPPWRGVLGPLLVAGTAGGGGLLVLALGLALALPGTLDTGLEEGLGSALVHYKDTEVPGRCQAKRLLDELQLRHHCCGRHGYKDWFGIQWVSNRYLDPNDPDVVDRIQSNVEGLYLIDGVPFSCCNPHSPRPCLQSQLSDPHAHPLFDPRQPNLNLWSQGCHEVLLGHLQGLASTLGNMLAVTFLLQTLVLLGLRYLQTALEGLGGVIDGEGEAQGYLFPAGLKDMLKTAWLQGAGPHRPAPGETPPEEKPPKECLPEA

Row | effect of a mutation on the interaction | Variant
1 | disrupting interaction | L12A

Variants of: B1
Conditions: with rom1_bovin ROM1, P52205
Remark: another data set of the same source

Row | effect of a mutation on the interaction | Variant
2 | decreasing interaction | E4A

Variants of: B1
Conditions: with rom1_bovin ROM1, P52205
Remark: another data set of the same source

Row | effect of a mutation on the interaction | Variant
3 | disrupting interaction | N9A

Variants of: B1
Conditions: with rom1_bovin ROM1, P52205
Remark: another data set of the same source

Row | effect of a mutation on the interaction | Variant
4 | decreasing interaction | L13A

Variants of: B1
Conditions: with rom1_bovin ROM1, P52205
Remark: another data set of the same source

Row | effect of a mutation on the interaction | Variant
5 | disrupting interaction | I6E
6 | disrupting interaction | V7E

Variants of: B1
Conditions: with rom1_bovin ROM1, P52205
Remark: another data set of the same source

Row | effect of a mutation on the interaction | Variant
7 | decreasing interaction | I6A

Variants of: B1
Conditions: with rom1_bovin ROM1, P52205
Remark: another data set of the same source

Row | effect of a mutation on the interaction | Variant
8 | decreasing interaction | V7A

Variants of: B1
Conditions: with rom1_bovin ROM1, P52205
Remark: another data set of the same source

Row | effect of a mutation on the interaction | Variant
9 | decreasing interaction | L3A
